Laboratory results from IntAct's records for PubMed 35512704.

B1: Speckle-type POZ protein (Homo sapiens), O43791 (parent)
chain: MSRVPSPPPPAEMSSGPVAESWCYTQIKVVKFSYMWTINNFSFCREEMGEVIKSSTFSSGANDKLKWCLRVNPKGLDEESKDYLSLYLLLVSCPKSEVRAKFKFSILNAKGEETKAMESQRAYRFVQGKDWGFKKFIRRDFLLDEANGLLPDDKLTLFCEVSVVQDSVNISGQNTMNMVKVPECRLADELGGLWENSRFTDCCLCVAGQEFQAHKAILAARSPVFSAMFEHEMEESKKNRVEINDVEPEVFKEMMCFIYTGKAPNLDKMADDLLAAADKYALERLKVMCEDALCSNLSVENAAEILILADLHSADQLKTQAVDFINYHASDVLETSGWKSMVVSHPHLVAEAYRSLASAQCPFLGPPRKRLKQS
partner: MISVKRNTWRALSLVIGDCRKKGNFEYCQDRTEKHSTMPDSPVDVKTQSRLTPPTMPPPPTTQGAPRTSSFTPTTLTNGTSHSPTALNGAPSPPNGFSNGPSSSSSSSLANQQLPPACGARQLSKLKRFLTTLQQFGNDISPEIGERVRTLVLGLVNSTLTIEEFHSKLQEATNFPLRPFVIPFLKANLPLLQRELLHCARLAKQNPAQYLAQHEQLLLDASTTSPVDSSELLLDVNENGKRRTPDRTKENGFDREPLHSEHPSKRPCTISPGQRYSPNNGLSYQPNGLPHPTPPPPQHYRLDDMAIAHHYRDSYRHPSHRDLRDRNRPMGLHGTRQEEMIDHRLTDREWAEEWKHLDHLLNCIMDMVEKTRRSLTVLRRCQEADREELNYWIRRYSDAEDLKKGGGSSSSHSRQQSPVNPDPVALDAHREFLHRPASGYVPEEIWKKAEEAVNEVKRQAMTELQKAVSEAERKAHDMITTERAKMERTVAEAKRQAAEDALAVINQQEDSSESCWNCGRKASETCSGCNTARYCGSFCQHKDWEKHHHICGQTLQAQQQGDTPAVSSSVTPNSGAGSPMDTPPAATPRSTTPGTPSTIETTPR
B2: Speckle-type POZ protein (Homo sapiens), O43791 (parent)
chain: B1 chain
partner: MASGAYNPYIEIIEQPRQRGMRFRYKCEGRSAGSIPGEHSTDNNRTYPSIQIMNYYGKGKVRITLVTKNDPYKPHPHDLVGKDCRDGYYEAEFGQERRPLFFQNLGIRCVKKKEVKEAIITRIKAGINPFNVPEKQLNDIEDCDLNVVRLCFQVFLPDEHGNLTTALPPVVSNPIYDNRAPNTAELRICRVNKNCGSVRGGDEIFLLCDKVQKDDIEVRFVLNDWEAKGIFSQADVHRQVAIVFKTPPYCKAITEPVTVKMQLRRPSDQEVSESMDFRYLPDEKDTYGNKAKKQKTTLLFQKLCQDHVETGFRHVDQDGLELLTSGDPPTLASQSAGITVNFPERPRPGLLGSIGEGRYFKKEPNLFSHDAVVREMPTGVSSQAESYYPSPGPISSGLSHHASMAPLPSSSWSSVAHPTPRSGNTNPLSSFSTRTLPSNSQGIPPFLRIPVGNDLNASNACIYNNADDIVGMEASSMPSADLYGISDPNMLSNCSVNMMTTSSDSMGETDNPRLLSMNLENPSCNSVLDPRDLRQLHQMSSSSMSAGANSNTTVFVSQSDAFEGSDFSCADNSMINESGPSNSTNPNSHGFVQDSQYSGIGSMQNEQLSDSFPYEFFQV
B3: Speckle-type POZ protein (Homo sapiens), O43791 (parent)
chain: B1 chain
partner: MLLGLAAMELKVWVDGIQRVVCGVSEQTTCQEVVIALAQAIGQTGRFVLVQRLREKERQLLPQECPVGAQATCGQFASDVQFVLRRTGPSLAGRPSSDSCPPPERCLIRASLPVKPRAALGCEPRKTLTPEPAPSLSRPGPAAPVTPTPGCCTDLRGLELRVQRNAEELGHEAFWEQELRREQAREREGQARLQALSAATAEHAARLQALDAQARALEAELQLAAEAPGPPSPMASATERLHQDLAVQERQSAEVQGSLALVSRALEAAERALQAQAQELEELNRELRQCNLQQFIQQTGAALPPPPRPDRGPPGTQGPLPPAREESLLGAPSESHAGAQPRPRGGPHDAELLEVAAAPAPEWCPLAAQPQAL
B4: Speckle-type POZ protein (Homo sapiens), O43791 (parent)
chain: B1 chain
partner: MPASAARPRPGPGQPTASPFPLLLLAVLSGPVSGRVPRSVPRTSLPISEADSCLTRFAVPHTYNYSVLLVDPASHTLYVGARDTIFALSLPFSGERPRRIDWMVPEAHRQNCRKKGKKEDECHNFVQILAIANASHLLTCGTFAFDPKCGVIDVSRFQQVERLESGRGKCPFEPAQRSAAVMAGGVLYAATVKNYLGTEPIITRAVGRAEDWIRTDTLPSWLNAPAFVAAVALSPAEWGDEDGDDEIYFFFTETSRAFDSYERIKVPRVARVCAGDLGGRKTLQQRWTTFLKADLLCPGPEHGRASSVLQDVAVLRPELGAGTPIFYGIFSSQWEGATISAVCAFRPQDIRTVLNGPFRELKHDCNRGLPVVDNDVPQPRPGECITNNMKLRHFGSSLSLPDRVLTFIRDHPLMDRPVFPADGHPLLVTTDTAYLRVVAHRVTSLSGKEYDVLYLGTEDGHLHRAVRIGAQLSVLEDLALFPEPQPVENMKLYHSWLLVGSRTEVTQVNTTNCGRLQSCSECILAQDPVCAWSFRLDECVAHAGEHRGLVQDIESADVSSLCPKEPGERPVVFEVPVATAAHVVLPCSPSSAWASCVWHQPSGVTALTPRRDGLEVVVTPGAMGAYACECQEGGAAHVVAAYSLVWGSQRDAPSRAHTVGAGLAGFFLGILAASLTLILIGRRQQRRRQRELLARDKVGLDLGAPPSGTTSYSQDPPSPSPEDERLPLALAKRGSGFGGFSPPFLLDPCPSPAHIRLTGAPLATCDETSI
B5: Speckle-type POZ protein (Homo sapiens), O43791 (parent)
chain: B1 chain
partner: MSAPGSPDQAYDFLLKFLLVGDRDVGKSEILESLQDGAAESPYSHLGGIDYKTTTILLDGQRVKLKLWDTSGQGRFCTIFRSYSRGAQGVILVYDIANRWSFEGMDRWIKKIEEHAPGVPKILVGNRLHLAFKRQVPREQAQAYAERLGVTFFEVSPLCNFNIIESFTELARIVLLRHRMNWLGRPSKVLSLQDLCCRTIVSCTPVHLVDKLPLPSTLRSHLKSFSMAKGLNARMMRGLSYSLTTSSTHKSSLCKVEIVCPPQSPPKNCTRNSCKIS

Variants of: B1
Conditions: with mtg8_human RUNX1T1, Q06455

| effect of a mutation on the interaction | Variant |
| --- | --- |
| with no effect | F133V |

Variants of: B1
Conditions: with mtg8_human RUNX1T1, Q06455
Remark: another data set of the same source

| effect of a mutation on the interaction | Variant |
| --- | --- |
| disrupting interaction strength | F133V |
| disrupting interaction strength | Y87C |
| disrupting interaction strength | F102C |

Variants of: B1
Conditions: with mtg8_human RUNX1T1, Q06455
Remark: another data set of the same source

| effect of a mutation on the interaction | Variant |
| --- | --- |
| with no effect | Y87C |

Variants of: B1
Conditions: with mtg8_human RUNX1T1, Q06455
Remark: another data set of the same source

| effect of a mutation on the interaction | Variant |
| --- | --- |
| with no effect | F102C |

Variants of: B2
Conditions: with rel_human REL

| effect of a mutation on the interaction | Variant |
| --- | --- |
| causing an interaction | F133L |

Variants of: B2
Conditions: with rel_human REL
Remark: another data set of the same source

| effect of a mutation on the interaction | Variant |
| --- | --- |
| increasing interaction strength | F133L |

Variants of: B2
Conditions: with rel_human REL
Remark: another data set of the same source

| effect of a mutation on the interaction | Variant |
| --- | --- |
| with no effect | F133V |

Variants of: B2
Conditions: with rel_human REL
Remark: another data set of the same source

| effect of a mutation on the interaction | Variant |
| --- | --- |
| with no effect | F102C |

Variants of: B2
Conditions: with rel_human REL
Remark: another data set of the same source

| effect of a mutation on the interaction | Variant |
| --- | --- |
| with no effect | Y87C |

Variants of: B3
Conditions: with rasf7_human RASSF7, Q02833

| effect of a mutation on the interaction | Variant |
| --- | --- |
| with no effect | Y87C |

Variants of: B3
Conditions: with rasf7_human RASSF7, Q02833
Remark: another data set of the same source

| effect of a mutation on the interaction | Variant |
| --- | --- |
| with no effect | F133V |

Variants of: B3
Conditions: with rasf7_human RASSF7, Q02833
Remark: another data set of the same source

| effect of a mutation on the interaction | Variant |
| --- | --- |
| with no effect | F133L |

Variants of: B3
Conditions: with rasf7_human RASSF7, Q02833
Remark: another data set of the same source

| effect of a mutation on the interaction | Variant |
| --- | --- |
| with no effect | F102C |

Variants of: B4
Conditions: with sem4f_human SEMA4F

| effect of a mutation on the interaction | Variant |
| --- | --- |
| with no effect | F133L |

Variants of: B4
Conditions: with sem4f_human SEMA4F
Remark: another data set of the same source

| effect of a mutation on the interaction | Variant |
| --- | --- |
| with no effect | F133V |

Variants of: B4
Conditions: with sem4f_human SEMA4F
Remark: another data set of the same source

| effect of a mutation on the interaction | Variant |
| --- | --- |
| with no effect | F102C |

Variants of: B4
Conditions: with sem4f_human SEMA4F
Remark: another data set of the same source

| effect of a mutation on the interaction | Variant |
| --- | --- |
| with no effect | Y87C |

Variants of: B5
Conditions: with rb40a_human RAB40A

| effect of a mutation on the interaction | Variant |
| --- | --- |
| with no effect | Y87C |

Variants of: B5
Conditions: with rb40a_human RAB40A
Remark: another data set of the same source

| effect of a mutation on the interaction | Variant |
| --- | --- |
| with no effect | F133V |

Variants of: B5
Conditions: with rb40a_human RAB40A
Remark: another data set of the same source

| effect of a mutation on the interaction | Variant |
| --- | --- |
| with no effect | F133L |

Variants of: B5
Conditions: with rb40a_human RAB40A
Remark: another data set of the same source

| effect of a mutation on the interaction | Variant |
| --- | --- |
| with no effect | F102C |
